From patent US20210000895A1 (RHODE ISLAND HOSPITAL, published 2021)

Biological target: CD4 receptor on primary human CD4+ T lymphocytes (human, UniProt P01730 26-458)
Test: cell-based or functional assay

B1: IL-16/Lamp2b fusion protein (Interleukin (IL)-16 C-terminal 20 amino acid domain fused to the N-terminus of lysosome-associated membrane protein 2 variant b), … (other)
chain: GNSTMGSGTIVIRRKSLQSKETTAAGDSGSGSGSGGSSLELNLTDSENATCLYAKWQMNFTVRYETTNKTYKTVTISDHGTVTYNGSICGDDQNGPKIAVQFGPGFSWIANFTKAASTYSIDSVSFSYNTGDNTTFPDAEDKGILTVDELLAIRIPLNDLFRCNSLSTLEKNDVVQHYWDVLVQAFVQNGTVSTNEFLCDKDKTSTVAPTIHTTVPSPTTTPTPKEKPEAGTYSVNNGNDTCLLATMGLQLNITQDKVASVININPNTTHSTGSCRSHTALLRLNSSTIKYLDFVFAVKNENRFYLKEVNISMYLVNGSVFSIANNNLSYWDAPLGSSYMCNKEQTVSVSGAFQINTFDLRVQPFNVTQGKYSTAQECSLDDDTILIPIIVGAGLSGLIIVIVIAYVIGRRKSYAGYQTLGSGYPYDVPDYA
- Tat protein delivery to rCD4+T lymphocytes (Western blot of intracellular Tat), EXO^CD4-Tat exosomes compared to EXO-Tat exosomes: 20 fold
